Results published in US8012695B2, “Methods and compositions relating to promoter regulation by MUC1 and KLF proteins” (Dana-Farber Cancer Institute, Inc., priority 2007, dated 2011).
Ends that are not written are not given here.

Key:
KLF4 = molecular target: T1, KLF4 (Homo sapiens, UniProt O43474); assay: GST pull-down assay with 35S-labeled KLF4; format: binding; settings: adsorbates to glutathione beads, 2 h at 4° C., autoradiography
T1 construct: host or cells: rabbit reticulocyte lysate, cell-free transcription/translation
T1 sequence (O43474 10-513 limits assumed): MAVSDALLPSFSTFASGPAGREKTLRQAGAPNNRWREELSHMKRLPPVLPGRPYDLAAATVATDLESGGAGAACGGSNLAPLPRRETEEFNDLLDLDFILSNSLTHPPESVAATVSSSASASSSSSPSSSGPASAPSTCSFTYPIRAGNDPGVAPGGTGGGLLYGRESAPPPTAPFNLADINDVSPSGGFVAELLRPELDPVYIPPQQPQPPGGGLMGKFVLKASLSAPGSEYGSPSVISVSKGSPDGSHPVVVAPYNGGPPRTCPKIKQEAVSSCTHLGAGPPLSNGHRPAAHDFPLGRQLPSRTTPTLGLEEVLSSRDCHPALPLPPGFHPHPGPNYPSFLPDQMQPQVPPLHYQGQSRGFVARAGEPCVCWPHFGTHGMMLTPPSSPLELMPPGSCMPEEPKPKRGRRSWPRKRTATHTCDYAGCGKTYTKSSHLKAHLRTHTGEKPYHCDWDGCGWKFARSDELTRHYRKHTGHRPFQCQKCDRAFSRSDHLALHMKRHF
Experimental: FIG. 3D is a pair of photographs of (a) an autoradiogram and (b) a Coomassie blue stained polyacrylamide gel. GST, GST-MUC1-CD(1-72), GST-MUC1-CD(47-72), or GST-MUC1-CD(1-46) were bound to glutathione-conjugated agarose beads and incubated with [^35S]-labeled KLF4 protein. The beads were washed to remove unbound KLF4 protein. The remaining adsorbates were analyzed by SDS-PAGE and autoradiography (top photograph). Input KLF4 protein is shown in the first lane of the top photograph. Input of the GST and GST-MUC1-CD fusion proteins was assessed by Coomassie blue staining. The molecular weights of the proteins (expressed in kilodaltons (kDa)) are indicated at the left of each of the photographs.
GST pull-down assays. GST and GST fusion proteins were purified by binding to glutathione-agarose beads (Sigma). ^35S-labeled KLF4, prepared in rabbit reticulocyte lysate transcription/translation (TNT) reactions (Promega Corporation), was incubated with GST or the GST fusion proteins for 2 h at 4° C. After washing, the adsorbed proteins were resolved by SDS-PAGE and analyzed by autoradiography.
To determine if MUC1-C occupies the PE21 region with KLF4, Re-ChIP assays were performed using anti-MUC1-C and anti-KLF4 antibodies. […] Moreover, DNA damage had little if any effect on this interaction (FIG. 7B). […]

p53 promoter [1] = assay: p53 promoter-Luc reporter assay in ZR-75-1 cells; format: cell-based, human
Experimental: FIG. 4A is a bar graph (left) and a series of photographs of western blots (right) depicting the suppression of p53 gene transcription by MUC1. Bar graph, Left: ZR-75-1/MUC1siRNA cells were transfected with the −2400-p53-Luc reporter or the −320-p53-Luc reporter construct. The X-axis indicates the amount of MUC1-CD DNA (and a control LacZ expression plasmid) in μg (“μg MUC1-CD) also transfected into each cell. the indicated amounts of MUC1-CD. At 40 h after transfection, lysates were prepared from the transfected cells and assayed for luciferase activity. The Y-axis represents the relative luciferase activity expressed as fold activation (mean±SD of 3 separate experiments) compared to that obtained with empty vector-transfected cells (assigned a value of 1). Western blots, right: ZR-75-1/MUC1siRNA cells were transfected with the indicated amounts (in μg) of pCMV or pCMV-MUC1-CD vectors. At 24 hours after transfection, lysates from the indicated ZR-75-1/MUC1siRNA cells were immunoblotted (“IB”) with antibodies specific for p53, MUC1-C, or β-actin (as indicated below each photograph). […]
FIG. 4B is a pair of bar graphs. […] The Y-axis represents the relative luciferase activity expressed as the fold activation (mean±SD of 3 separate experiments) compared to that obtained with empty vector-transfected cells (assigned a value of 1). […]

p53 promoter [2] = assay: p53 promoter-Luc reporter assay in MCF-7 cells; format: cell-based, human; settings: −2400-p53-Luc, 0.5 μg MUC1-CD, increasing amounts of KLF4
Experimental: FIG. 4B is a pair of bar graphs. MCF-7 (left bar graph) or ZR-75-1 (right bar graph) cells were transfected with the −2400-p53-Luc reporter, the indicated amounts (0, 0.5, or 1 μg) of KLF4, 0.5 μg MUC1-CD and an internal control LacZ expression plasmid (pCMV-LacZ). At 40 hours after transfection, the cells were assayed for luciferase activity (as described above). The Y-axis represents the relative luciferase activity expressed as the fold activation (mean±SD of 3 separate experiments) compared to that obtained with empty vector-transfected cells (assigned a value of 1).
Transfection and reporter assays. Transfections were performed in 60 mm dishes using Fugene-6 (Roche Applied Science) or, for the luciferase assays, in 24 well plates using the calcium phosphate method (Invitrogen). Cells were transfected with the −2400-p53-Luc reporter, −2400-PE21-MUT-Luc reporter, −320-p53-Luc reporter, −320-PE21-MUT-Luc reporter (Rowland et al. (2005) Nat. Cell Biol. 7: 1074-1082) and an internal control LacZ expression plasmid (pCMV-LacZ) (Wei et al. (2001) J. Biol. Chem. 276: 16107-16112). Luciferase assays were performed with the Luciferase Assay System (Promega Corporation, Madison, Wis.) at 40 hours after transfection. Luciferase activity was normalized to that obtained for LacZ and presented as relative luciferase activity. […]

[3] = test system: ZR-75-1 breast cancer cells; assay: Immunoblot analysis of p53 in ZR-75-1 cells; format: cell-based, human; settings: ZR-75-1/MUC1siRNA cells transfected with pCMV-MUC1-CD, 24 hours
Experimental: Cell culture. […] Human ZR-75-1 breast cancer cells and those stably infected with a control siRNA (ZR-75-1/CsiRNA) or one expressing a MUC1siRNA (ZR-75-1/MUC1siRNA) (Wei et al. (2006) Mol. Cell. 21: 295-305) were cultured in RPMI 1640 medium supplemented with 10% HI-FBS, 100 μg/ml streptomycin, 100 units/ml penicillin, and 2 mM L-glutamine.
Immunoblotting. […] Immunoblot analysis was performed with anti-p53 (Ab-2, Ab-6; Oncogene Research Products), anti-MUC1-C (Ab-5; Neomarkers, Freemont, Calif.), anti-KLF4 (H-180; Santa Cruz Biotechnology), anti-β-actin (Sigma), anti-IκBα (Santa Cruz Biotechnology), or anti-PCNA (F-2; Santa Cruz Biotechnology) antibodies. Whole cell lysates were also, prior to analysis by immunoblotting, first subjected to immunoprecipitation with an anti-KLF4 antibody. Immunocomplexes were detected with enhanced chemiluminescence (ECL; PerkinElmer Life Sciences).

Molecule | binding of [35S]-labeled KLF4 to GST fusion protein (KLF4) | p53 gene transcription (luciferase activity) (p53 promoter [1]; ZR-75-1/MUC1siRNA cells, −2400-p53-Luc or −320-p53-Luc, 40 h after transfection) | effect on KLF4-mediated suppression of p53 transcription (luciferase) (p53 promoter [1]; ZR-75-1 cells, −2400-p53-Luc, 0.5 μg MUC1-CD, increasing amounts of KLF4) | effect on KLF4-mediated suppression of p53 transcription (luciferase) (p53 promoter [2]) | p53 levels (immunoblot) [3]
MUC1-CD(47-72): GST fusion of MUC1-CD deletion fragment, amino acids 47-72 (EKVSAGNGGSSLSYTNPAVAAASANL; also: GST fusion (side not given here); listed as Homo sapiens) | not | – | – | – | –
MUC1-CD(1-72): GST fusion of the MUC1 cytoplasmic domain, amino acids 1-72 (SEQ ID NO:2) (protein, left off: a dimerising Fc or GST) CQCRRKNYGQLDIFPARDTYHPMSEYPTYHTHGRYVPPSSTDRSPYEKVSAGNGGSSLSYTNPAVAAASANL | binds | – | – | – | –
MUC1-CD: MUC1 cytoplasmic domain expressed in cells by transfection of the pCMV-MUC1-CD vector (protein, listed as Homo sapiens) CQCRRKNYGQLDIFPARDTYHPMSEYPTYHTHGRYVPPSSTDRSPYEKVSAGNGGSSLSYTNPAVAAASANL | – | suppresses p53 gene transcription | potentiates KLF4-mediated suppression of p53 transcription | potentiates KLF4-mediated suppression of p53 transcription | downregulates p53 levels
